Patent US7732178B2, “Laccase enzymes and their uses” (AB Enzymes Oy, priority 2004, dated 2010)

B1: MaL: well-known fungal laccase from Melanocarpus albomyces (protein, UniProt Q70KY3 51-609, looked up)
Laccase-1: EPTCNTPSNRACWSDGFDINTDYEVSTPDTGVTQSYVFNLTEVDNWMGPDGVVKEKVMLINGNIMGPNIVANWGDTVEVTVINNLVTNGTSIHWHGIHQKDTNLHDGANGVTECPIPPKGGQRTYRWRARQYGTSWYHSHFSAQYGNGVVGTIQINGPASLPYDIDLGVFPITDYYYRAADDLVHFTQNNAPPFSDNVLINGTAVNPNTGEGQYANVTLTPGKRHRLRILNTSTENHFQVSLVNHTMTVIAADMVPVNAMTVDSLFLAVGQRYDVVIDASRAPDNYWFNVTFGGQAACGGSLNPHPAAIFHYAGAPGGLPTDEGTPPVDHQCLDTLDVRPVVPRSVPVNSFVKRPDNTLPVALDLTGTPLFVWKVNGSDINVDWGKPIIDYILTGNTSYPVSDNIVQVDAVDQWTYWLIENDPEGPFSLPHPMHLHGHDFLVLGRSPDVPAASQQRFVFDPAVDLARLNGDNPPRRDTTMLPAGGWLLLAFRTDNPGAWLFHCHIAWHVSGGLSVDFLERPADLRQRISQEDEDDFNRVCDEWRAYWPTNPYPKIDSGL
B2: TaLcc3: Thielavia arenaria ALKO 4197 laccase, SEQ ID NO: 43, produced in Trichoderma reesei (protein)
chain: MVCLQYQLTAACFAVLAVVTTPASCSPVQPSPVHDLLPRQTIIPGGKPCGQNNATNRGCWKNNWNITTDYEVDTPPAFNTRVYDLHITNVTNWLGPDGVRKPAMLINGSFPGPTISADWGDYIIVNVHNDMQDNGTSIHWHGIRQLGESNQDGANGVTECPIPPGSSKTYDFHVTQYGTSWYHSHYSNQYGNGVVGALIVRGPASANYDIDLGPYLISDYYYETADRLHLRAELVSNGPPPDSDNILFRGKNINPKRAGSGSYDRLVLTPGKKHLIRLINASVDNSFVISLVGHNFTVISTDMVPITPVVRSSLFMGVGQRYDVIVEANQPVGNYWLNATLEAQNNCGHSVNPFPAAIVQYEGASSTALPTNRGTPLTATCNGEKGFSPIVKRTVSSSLFQPSTLPVSLEFPTTDRGQVFEWRVKNTPISVEWEHPVLEYILQGNTSFPAKANLIEVPQANVWTFWVIQNGFGLPHPIHLHGHDFLVLGVGNGTFDAASMRGLLNFNNPVRRDVEQMPGNGWLVIAFKTDNPGCWLMHCHIGWHVAMGLGIQFLERRSDILALMKLDQMVPNCEAWRAYARTSPYLPKLDSGLKRGVEMREGMEPAVRRIG
modifications: Thielavia arenaria ALKO4197; (1)..(611) Deduced amino acid sequence of Thielavia arenaria LAKO4197 TaLcc3

Tests used:
[1] = Specific activity towards ABTS; assay type: biochemical; conditions: 25 mM succinate buffer pH 4.5, 25° C.
Method: The activity assay was carried out in accordance with the method developed by Niku-Paavola et al. (1988). The sample was diluted with 0.025 M succinate buffer, pH 4.5. […] The activity is expressed as nano katals.
(§1) Specific activities of the purified T. arenaria and C. thermophilum laccases were determined towards different laccase substrates.

[2] = Specific activity towards di-methoxy-phenol (DMP); assay type: biochemical; conditions: 25 mM MES buffer, pH 5.5
Method: as §1

[3] = Specific activity towards guaiacol; assay type: biochemical; conditions: 25 mM MES buffer, pH 5.5
Method: as §1

[4] = Specific activity towards syringaldazine; assay type: biochemical; conditions: 25 mM MES buffer, pH 5.5
Method: as §1

[5] = Isoelectric focusing (pI); assay type: physicochemical; conditions: pH range 3-9
Method: Molecular weight of the T. arenaria and C. thermophilum laccases were determined on SDS-PAGE according to Laemmli (1970) The gels used in the SDS-PAGE analysis were ready-made 12% Tris HCl gels (BioRad). Protein bands were visualized by staining with Coomassie Brilliant Blue (R 350; Pharmacia) and compared with molecular weight markers (Prestained Protein Marker Broad Range #7708S; New England BioLabs, Beverly, Mass.). The molecular weight of the both laccases was approximately 80 kDa. The isoelectric point of the laccases was determined with isoelectric focusing within the pH range of 3-9 (Pharmalyte IEF, Pharmacia) on a LKB 2117 Multiphor II Electrophoresis System (LKB Pharmacia, Bromma, Sweden) according to the manufacturer's instructions.
The purified recombinant Thielavia and Chaetomium laccases were characterized in terms of pH optimum, thermal stability, and pI as described in Example 2. The molecular weight was determined by MALDI-TOF mass spectrometry on a Ultraflex™ time-of-flight instrument (BrukerDaltonics, Germany) as previously described (Palonen et al., 2003). The redox-potentials of the T1 coppers of for CtLcc, and TaLcc2 laccases were determined by photometric copper titration in 0.1 M KH2PO4 (pH 6.0) as described by Xu et al. (1996) using the redox titrant couple K3Fe(CN)6/K4Fe(CN)6. The redox potential of TaLcc1 was determined with a combined Pt—AgCl/KCl microelectrode at pH 5.0 according to Sigoillot et al (2004). The characterization results are collected to Table 14.

Molecule	Specific activity on ABTS [1] [nkat/mg]	Specific activity on DMP [2] [nkat/mg]	Specific activity on guaiacol [3] [nkat/mg]	Specific activity on syringaldazin [4] [nkat/mg]	pI [5]
B1	840	290	90	380	–
B2	8.3	2.1	0	3.6	7.0-8.0
